According to patent publication US5681719, “DNA encoding N- and C- terminally truncated colony stimulating factor-1 variants” (Chiron Corporation, dated 1997):
Several values for one entry are separate records, joined by “and”; a condition that tells them apart may be missing. Equal values may be shown once.

T1: specific receptors for CSF-1 on J774.2 mouse macrophage cells (mouse) (UniProt P09581)
T1 sequence: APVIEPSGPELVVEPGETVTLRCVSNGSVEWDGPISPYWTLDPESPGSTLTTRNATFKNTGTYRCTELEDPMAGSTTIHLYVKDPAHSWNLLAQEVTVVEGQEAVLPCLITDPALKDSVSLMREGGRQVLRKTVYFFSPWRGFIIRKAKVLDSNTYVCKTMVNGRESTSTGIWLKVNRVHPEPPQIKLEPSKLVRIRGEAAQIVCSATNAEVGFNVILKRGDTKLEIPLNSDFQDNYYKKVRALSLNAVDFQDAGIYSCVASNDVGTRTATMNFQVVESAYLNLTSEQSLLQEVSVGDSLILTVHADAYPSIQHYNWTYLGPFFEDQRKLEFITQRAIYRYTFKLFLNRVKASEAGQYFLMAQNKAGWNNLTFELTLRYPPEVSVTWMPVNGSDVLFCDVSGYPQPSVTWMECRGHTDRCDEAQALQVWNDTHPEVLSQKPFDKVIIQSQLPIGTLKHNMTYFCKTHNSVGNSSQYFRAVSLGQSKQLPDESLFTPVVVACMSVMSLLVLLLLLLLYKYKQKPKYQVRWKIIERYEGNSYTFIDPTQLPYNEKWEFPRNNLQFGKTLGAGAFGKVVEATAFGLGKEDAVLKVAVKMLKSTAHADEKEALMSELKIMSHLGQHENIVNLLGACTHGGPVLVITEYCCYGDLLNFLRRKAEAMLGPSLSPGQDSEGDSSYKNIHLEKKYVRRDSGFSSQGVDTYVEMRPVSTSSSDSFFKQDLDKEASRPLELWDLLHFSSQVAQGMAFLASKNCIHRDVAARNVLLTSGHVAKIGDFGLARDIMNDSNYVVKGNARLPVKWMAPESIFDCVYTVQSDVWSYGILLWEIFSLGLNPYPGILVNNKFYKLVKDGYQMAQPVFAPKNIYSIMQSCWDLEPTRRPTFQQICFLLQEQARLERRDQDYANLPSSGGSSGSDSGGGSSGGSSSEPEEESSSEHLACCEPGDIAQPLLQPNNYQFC

T2: specific receptors for CSF-1 on J774.2 mouse macrophage cells (mouse, UniProt P09581)
T2 sequence: T1 sequence

B1: SCSF, expression product of pcCSF-17 (short form of human CSF-1) (ligand)
chain: EEVSEYCSHMIGSGHLQSLQRLIDSQMETSCQITFEFVDQEQLKDPVCYLKKAFLLVQYIMEDTMRFRDNTPNAIAIVQLQELSLRLKSCFTKDYEEHDKACVRTFYETPLQLLEKVKNVFNETKNLLDKDWNIFSKNCNNSFAECSSQGHERQSEGSSSPQLQESVFHLLVPSVILVLLAVGGLLFYRWRRRSHQEPQRADSPLEQPEGSPLTQDDRQVELPV
B2: SCSF/C∇158, expression product of pCSF-BamBcl (ligand)
chain: EEVSEYCSHMIGSGHLQSLQRLIDSQMETSCQITFEFVDQEQLKDPVCYLKKAFLLVQYIMEDTMRFRDNTPNAIAIVQLQELSLRLKSCFTKDYEEHDKACVRTFYETPLQLLEKVKNVFNETKNLLDKDWNIFSKNCNNSFAECSSQGHERQSEGS
B3: SCSF/C∇158, expression product of pCSF-BamTGA (ligand)
chain: B2 chain
B4: SCSF/C∇150, expression product of pCSF-Gly150 (ligand)
chain: EEVSEYCSHMIGSGHLQSLQRLIDSQMETSCQITFEFVDQEQLKDPVCYLKKAFLLVQYIMEDTMRFRDNTPNAIAIVQLQELSLRLKSCFTKDYEEHDKACVRTFYETPLQLLEKVKNVFNETKNLLDKDWNIFSKNCNNSFAECSSQG
B5: expression product of pCSF-Bam: 158 amino acids of CSF-1 fused to six vector-derived residues (ligand)
chain: EEVSEYCSHMIGSGHLQSLQRLIDSQMETSCQITFEFVDQEQLKDPVCYLKKAFLLVQYIMEDTMRFRDNTPNAIAIVQLQELSLRLKSCFTKDYEEHDKACVRTFYETPLQLLEKVKNVFNETKNLLDKDWNIFSKNCNNSFAECSSQGHERQSEGSRHDKIH

Tests used:
[1] = target: T1, specific receptors for CSF-1 on J774.2 mouse macrophage cells (mouse)
[2] = target: T1, specific receptors for CSF-1 on J774.2 mouse macrophage cells (mouse); remark: listed apart in the source
[3] = target: "Rabbit 52" polyclonal antiserum raised against purified human urinary CSF-1; experiment: radioimmunoassay: competition with 125I-labelled MIAPaCa CSF-1 for Rabbit 52 antiserum; medium of SV40-infected CV-1 cells
[4] = target: rabbit antisera raised against human urinary CSF-1; experiment: radioimmunoassay using anti-CSF antibodies, COS-A2 supernatant; first of three values
[5] = target: T1, specific receptors for CSF-1 on J774.2 mouse macrophage cells (mouse); experiment: radioreceptor assay: competition with 125I-labelled CSF-1 for receptors on J774.2 mouse macrophage cells; MIAPaCa supernatant as standard
[6] = target: rabbit antisera raised against human urinary CSF-1; experiment: radioimmunoassay using anti-CSF antibodies, COS-A2 supernatant
[7] = target: T2, specific receptors for CSF-1 on J774.2 …; experiment: cell-based or functional assay

| Molecule | Bone Marrow Assay, Colony (units/ml) [1] [units/ml] | Bone Marrow Assay, Proliferation (units/ml) [1] [units/ml] | Radioimmunoassay (units/ml) [4] [units/ml] | other results |
| --- | --- | --- | --- | --- |
| asp59 SCSF, expression product of pCSF-asp59 (ligand) | 9000 | 3380 |  |  |
| pro52 SCSF, expression product of pCSF-pro52 (ligand) | < 100 | < 25 |  |  |
| gln52 SCSF, expression product of pCSF-gln52 (ligand) | 6210 | 2970 |  |  |
| asp59 SCSF/C∇158, expression product of pCSF-asp59-BamBcl (ligand) |  |  |  | Mouse Bone Marrow Colony Assay, Colony Forming Units/ml (Colony Forming Units/ml) [2]: 72000 |
| asp59 SCSF/C∇150, expression product of pCSF-asp59-gly150 (ligand) |  |  |  | Mouse Bone Marrow Colony Assay, Colony Forming Units/ml (Colony Forming Units/ml) [2]: 131000 |
| B1 | 11100 | 2800 | 3130 | CSF-1 by radioimmunoassay (U/ml) [3]: 2340 U/ml; CSF-1 concentration by radioreceptor assay [5]: 2470 U/ml and 3240 U/ml |
| B2 |  |  | 8800 |  |
| B3 |  |  | 8450 |  |
| B4 |  |  |  | Radioimmunoassay (units/ml) [6]: 26800 units/ml; Bone Marrow Assay, Colony (units/ml) [7]: 55700 units/ml |
| B5 |  |  | 9600 | Bone Marrow Assay, Colony (units/ml) [7]: 22600 units/ml |
